Measured values from patent publication US20220389113A1, “BINDING PROTEINS TO CUB DOMAIN-CONTAINING PROTEIN (CDCP1)” (COMMONWEALTH SCIENTIFIC AND INDUSTRIAL RESEARCH ORGANISATION, priority 2019, published 2022).

How the values were obtained:
[1] = test system: TKCC05 cells and normal human pancreatic stellate cells; experiment: Co-culture assay of TKCC05 cells and normal human pancreatic stellate cells; type: cell-based
Procedure: For survival assays, cells (5,000/well) were plated in 96-well plates and allowed to attach for 24 h. Cells were then treated for 24 h with 10D7 (5 μg/ml) or isotype control IgG (5 μg/ml) before addition of gemcitabine (0.02 to 500 nM) and incubation for another 72 h. In assays assessing the effect of cytotoxin-conjugated antibodies, cells were treated for 12 h with 10D7-MMAE, IgG-MMAE, 10D7 or IgG (0.0625 to 1.0 μg/ml) then washed before the media was replaced with standard growth medium for 72 h. The relative number of viable cells was then measured by adding the CellTiter AQueous One Solution Reagent to each well and measuring absorbance at 490 nm as described above. In co-culture assays, mKO2 expressing TKCC05 PDAC cells (2,000 cells/well) were co-cultured with GFP expressing normal human pancreatic stellate cells (2,000 cells/well) for 24 h in a 1:1 mixture of TKCC05 and hPSC growth medium before treatments with 10D7-MMAE, IgG-MMAE, 10D7 or IgG (0.0625 to 1.0 μg/ml), IgG or 10D7 (1 μg/ml) or PBS as above. Cells were imaged by wide-field fluorescence microscopy and the total area of confluence for each cell type was quantified by image analysis using Image J software.
The generated antibody-drug conjugate (ADC), 10D7-MMAE, has an average drug-antibody ratio (DAR) of 4.5 to 4.7, and retains the functional ability to induce phosphorylation of CDCP1 and Src (see Example 7). […]

TKCC05 cells = experiment: Survival assay with cytotoxin-conjugated antibodies, TKCC05; type: cell-based, human; settings: TKCC05, 1 μg/ml, 12 h treatment then 72 h growth
Procedure: (§1) The relative number of viable cells was then measured by adding the CellTiter AQueous One Solution Reagent to each well and measuring absorbance at 490 nm as described above. […] Cells were imaged by wide-field fluorescence microscopy and the total area of confluence for each cell type was quantified by image analysis using Image J software.

[2] = test system: subcutaneous TKCC05 cells xenografts; experiment: TKCC05 subcutaneous xenograft, MMAE-conjugated antibodies; type: in vivo, mouse; settings: 5 mg/kg i.v. on day 27 and 41, in comparison with the other treatments
Procedure: Mouse experiments were approved by the University of Queensland Animal Ethics Committee. PDAC cells (2.5×10^6) were injected subcutaneously into the flanks of NOD.Cg-Prkdcscid Il2rgtm1Wjl/SzJ (NSG) mice (6-8 weeks; Jackson Laboratory, Bar Harbor, Me.). For assays assessing the impact of antibody 10D7 on xenograft growth, two weeks after PDAC cell inoculations, mice (n=6/group) were randomized and treated i.v. every four days with PBS, 10D7 (5 mg/kg) or IgG (5 mg/kg) until the end of the assay. For assays assessing whether 10D7 improves the efficacy of gemcitabine chemotherapy, four weeks after PDAC cell inoculations, mice were randomized and treated i.v. every four days with PBS (n=12), 10D7 (n=12, 5 mg/kg) or IgG (n=12, 5 mg/kg). Half of the mice in each of the three groups also received gemcitabine i.p. treatments (125 mg/kg/week). At the end of the assay tumours were harvested, weighed and processed for assessment of histology and CDCP1 expression by immunohistochemistry or western blot analysis. […] Tumour burden was monitored by calliper measurement and tumour volume calculated as previously described (Feldman J P, Goldwasser R, Mark S, Schwartz J (2009) Journal of Applied Quantitative Methods 4(4):455-462). […]
Finally, the inventors evaluated whether the PDAC targeting ability of antibody 10D7 can be harnessed to effectively deliver the cytotoxin MMAE to PDAC in vivo. […]

PANC-1 cells = experiment: Survival assay with cytotoxin-conjugated antibodies, PANC-1; type: cell-based, human; settings: PANC-1, 1 μg/ml, 12 h treatment then 72 h growth
Procedure: as §1

B1: 10D7-MMAE (conjugate)
VH: EVQLQQFGAELVKPGASVKISCKASGYSFSDFNIEWLKQSHGKSLEWIGDINPNYDSTNYNQKFKGRATLTVDKSSSTAYMEVRSLTSEDTAVYYCARLGYGYAMDYWGQGTSVTVSS
VL: NIVMTQSPQSMSMSVGERVTLSCKASENVGAYVSWFQQKPDQSPKLLILAASNRYTGVPARFIGSGSATDFTLTISSVQAEDLADYHCGQSYTYPYTFGGGTKLEIKRADAAPTVS
**Q.** Which results are given for B1?
**A.** response of TKCC05 cells ([1]; CDCP1 expressing cells): very sensitive; response of normal human pancreatic stellate cells ([1]; CDCP1 non-expressing cells): unresponsive; survival of cells (TKCC05 cells): about 10%; survival of xenografted mice [2]: significantly extended survival; tumour growth [2]: markedly inhibited tumour growth; survival of cells (PANC-1 cells): about 20%
